This is an account of results in patent US20250163149A1, “ANTI-RAGE ANTIBODY” (Swansea University, priority 2022, published 2025).

For assay [1], the target named is synthetic peptide S155 of the RAGE V-domain (amino acids 39-65) (human). The experiment in a line: SPR (Biacore T200), antibody amine-coupled to a CM5 chip as ligand, RAGE peptide S155 (BioRad) as analyte, multi-cycle kinetics, 1:1 fit; 'No steady state.'. A general note: SPR reads the build-up and loss of mass on a sensor chip optically.
In assay [2] the target is Human rRAGE, full-length RAGE recombinant protein from Merck (human) (UniProt Q15109). The experiment in a line: SPR (Biacore T200), antibody amine-coupled to a CM5 chip as ligand, RAGE recombinant protein (Merck) as analyte, multi-cycle kinetics, 1:1 fit.
Human rRAGE, full-length RAGE recombinant protein from Merck (human), sequence (Q15109 23-404 limits assumed): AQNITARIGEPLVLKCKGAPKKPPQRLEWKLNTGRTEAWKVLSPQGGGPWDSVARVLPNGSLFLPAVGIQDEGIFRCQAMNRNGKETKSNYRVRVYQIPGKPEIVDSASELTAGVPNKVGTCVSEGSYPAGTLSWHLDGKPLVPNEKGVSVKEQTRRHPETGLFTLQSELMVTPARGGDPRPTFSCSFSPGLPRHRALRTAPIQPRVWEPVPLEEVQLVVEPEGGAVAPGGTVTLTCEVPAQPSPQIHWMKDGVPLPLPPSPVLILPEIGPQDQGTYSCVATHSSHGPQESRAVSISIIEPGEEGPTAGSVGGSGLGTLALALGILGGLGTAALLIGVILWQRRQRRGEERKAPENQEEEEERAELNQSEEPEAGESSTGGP
Assay [3] addresses synthetic peptide S155 of the RAGE V-domain (amino acids 39-65) (human). The assay is described as follows: ELISA, BSA-conjugated peptide S155 on the plate, two-fold dilutions of antibody, HRP anti-mouse, OD 450 nm. Background: ELISA stands for enzyme-linked immunosorbent assay.
Assay [4] has as its target T1, synthetic peptide S155 of the RAGE V-domain (amino acids 39-65) (human).
T1 construct: injected as analyte in SPR; also called RAGE synthetic peptide
T1 peptide: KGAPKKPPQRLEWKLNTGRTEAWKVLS
The assay is described as follows: SPR (Biacore T200), antibody amine-coupled to a CM5 chip as ligand, RAGE Peptide (S155) as analyte, multi-cycle kinetics, 1:1 fit. The protocol:
Data were then fitted to a 1:1 binding model.
(§1) For on-rate and off-rate screening, Biacore™ T200 system (Cytiva, Uppsala, Sweden) was used to perform SPR analysis with 1×HBS-EP+ buffer (0.01M Hepes, 0.15M NaCl, 0.003M ethylenediaminetetraacetic acid, and 0.05% Surfactant P20, pH 7.4) (BR100669) used as sample and running buffer. The analysis temperature at the sensor chip surface and within the compartment was set to 25° C. Firstly, pH scouting with 10 mM sodium acetate buffer 4.0 (BR-1003-49), 10 mM sodium acetate buffer 4.5 (BR-1003-50), 10 mM sodium acetate buffer 5.0 (BR-1003-51) and 10 mM sodium acetate buffer 5.5 (BR-1003-52) was performed to identify the optimal pH required for ligand (α-RAGE antibodies) immobilization. This was followed by diluting the ligand with the appropriate Acetate buffer to at least 10 μg/mL. The ligand immobilization on the surface Series S Sensor Chip CM5 (29-1496-03, Cytiva) was performed using the Amine Coupling Kit (BR100050, Cytiva) containing 1-Etyhyl-3-(3-dimethylaminopropyl)-carbodiimide hydrochloride (EDC), N-Hydroxysuccinimide (NHS) and 1.0M ethanolamine-HcL PH 8.5 in accordance with the manufacturer's instructions. For each experimental run, the ligand was immobilized in flow cells 2 or 4 while flow cells 1 or 3 were left unmodified.

Assay [5] concerns RAGE. The experiment in a line: Western blot on protein extracts from ovarian cancer cell lines (OCCL). Details: species or system human. The conditions noted are these: whole-cell extracts of SKOV3, OVCAR3, A2780 and cisplatin-resistant lines; antibody 1 μg/mL. How it is done:
Confluent cultures of cells were lysed in ice cold RIPA buffer (Sigma-Aldrich), whole-cell protein extracts were quantified with DC protein assay, 30 μg/lane were resolved by SDS-PAGE on TGX precast gels, transferred to mini PDVF membranes, blocked 1 h at RT in 5% Bovine Serum Albumin (BSA) in TBST (Tris Buffered Saline, 0.1% Tween-20) and incubated o/n at 4° C. in the same solution with 1 μg/mL of mA9 (sc-365154, Santa Cruz Biotechnology) antibody, mHA9 antibody or hHA9 antibody, or GAPDH (Santa Cruz Biotechnology) as loading control. Membranes were then washed with TBST and incubated 1 h at RT with 0.1 μg/mL of IgG horseradish peroxidase secondary antibody (GE Healthcare) or […] of Goat F(ab′) 2 Anti-Mouse IgG-F(ab′) 2 horseradish peroxidase secondary antibody (Abcam). Target proteins were visualised after incubation with Clarity Western ECL Substrate and imaged using a ChemiDoc System Bio-Rad Imager. Bands were quantified with ImageLab software. Unless stated all the materials specified above were obtained from Bio-Rad Laboratories.

Assay [6] addresses T2, RAGE recombinant protein (Human rRAGE) (Homo sapiens, UniProt Q15109).
T2 construct: Human rRAGE=Full-length RAGE recombinant protein from Merck; purchased Merck
The experiment in a line: Surface plasmon resonance binding kinetics (Biacore T200), recombinant protein analyte. The conditions noted are these: analyte RAGE recombinant protein, or RAGE synthetic peptide, not separated. The protocol:
as §1, with “unmodified. Flow cells 2 and 4 were used as active flow cells while flow cells 1 and 3 were used as reference flow cells. Ligand immobilization levels were typically within the range 500-900 RU for the kinetic experiments and injected with a flow rate of 10 μL/min and contact time of 300 s. Analytes (RAGE recombinant protein and synthetic peptides) were injected for 120 s with a flow rate of 30 μL/min and dissociation time of 600 s run in order of increasing concentration over the reference and active flow cells using a multi-cycle kinetic approach with five-seven concentration range. Following each binding cycle, the surface was regenerated with a 30 s injection of 10 mM Glycine-HcL, pH 2.5 regeneration solution (BR-1003-56), removing the bound antibody with a contact time of 30 s, flow rate of 30 μL/min and a stabilization period of Os. […]” for “unmodified.”

The target of assay [7] is T3, RAGE synthetic peptide (S155) (Homo sapiens, UniProt Q15109).
T3 construct: purchased Biorad; host or cells: chemical synthesis
The experiment in a line: ELISA screening of purified anti-RAGE antibody clones. It is filed as binding. The conditions noted are these: BSA-conjugated peptide S155; serial dilutions of antibody; 6 murine clones compared. The protocol: A 96-well plate was coated with 5 μg/ml of RAGE synthetic peptides or RAGE recombinant protein diluted in phosphate-buffered saline (pH 7.4) overnight at 4° C. The solution was removed, washed with PBS-Tween (PBST) and the plate was blocked with ELISA ultrablock buffer (Biorad) for 1 h at room temperature. After blocking, the plate was washed with PBST and a range of concentrations of α-RAGE antibodies was applied to the plate for 2 h at room temperature. The plate was washed thoroughly with PBST and incubated with HRP-conjugated anti-mouse antibodies diluted 1:1000 in PBS-Tween. After washes with PBST, TMB Core+ substrate solution (Biorad) was added to each well and incubated at room temperature for 30 minutes. 0.2M H2SO4 was used as a stop solution. Absorbance at 450 nm was measured in a Biorad absorbance microplate reader.

Assay [8] addresses RAGE (Homo sapiens, UniProt Q15109). The assay is described as follows: Western blot on protein extracts from human healthy tissues. The conditions noted are these: brain, breast, kidney, liver, lung, ovary, pancreas, spleen and uterus.
Another assay has as its system SKOV3 cells. The experiment in a line: Internalisation assay on SKOV3 cells. It counts as cell-based, human. The conditions noted are these: 4 h or 24 h at 37° C., compared with other clones and AB11451. How it is done:
To screen internalization capacity and traffic to lysosomes of α-RAGE antibodies, all the primary antibodies used in the screening were conjugated to pHAb Amine Reactive Dye following manufacturer's instructions (Promega, UK, Cat. No. G983). This type of dye emits fluorescence when traffics to acidic environments (late endosome and lysosome). For this purpose, 1.5×10^4 SKOV3 cells/well were seeded in 8-well chamber slides (Ibidi) in 300 μl of stripped medium and cultured for 24 h in a humidified, 5% CO2 in air atmosphere incubator at 37° C. After culture, cells were washed in pre-warmed (37° C.) Dulbecco's phosphate buffered saline (DPBS) and slides placed on ice. Cells were treated with control medium or medium containing one of the α-RAGE antibodies conjugated to pH-dye at 10 μg/ml, and the 8-well chamber slides were incubated on ice for 30 minutes. Slides were then transferred to the incubator at 37° C. for 4 h or 24 h. After internalization time, cells were washed in DPBS, fixed in 4% paraformaldehyde for 20 min and permeabilized with 0.1% Triton X-100 (Sigma) for 10 minutes at 4° C. Cells were washed with PBS extensively between all steps, counterstained before imaging with Hoechst (Life Technologies™) and imaged using a LSM710 confocal fluorescence microscopy system (Zeiss, UK). Unconjugated α-RAGE antibodies were also used in the internalisation assay. In this case were visualized using Alexa-fluorophore secondary antibodies as described in the immunofluorescence method.

T2 sequence (Q15109 23-404): as the sequence (Q15109 23-404 limits assumed) above
RAGE (Homo sapiens, UniProt Q15109), sequence (Q15109 23-404): as the sequence (Q15109 23-404 limits assumed) above

B1: murine ID9 anti-RAGE monoclonal antibody (antibody, part only; not given: Light chain variable region, V domains shown, part only)
VH: QVTLKESGPGILKPSQTLSLTCSFSGFSLSTSGMGVGWIRQPSGKGLEWLAHIWWDDDKYYKPSLKSQVTISKDTSRNQVFLKITSVDTADTATYYCARSRYYGSSGMDYWGQGTSVTVSS
In assay [1], B1 registered a dissociation constant (Kd) of 200 nM, a koff of 0.00515 s⁻¹ and a kon of 25000 M⁻¹ s⁻¹. Besides, in assay [2], the dissociation constant Kd stood at 6940 nM, the off-rate constant (koff) was found to be 0.00561 s⁻¹ and the kon came out at 808 M⁻¹ s⁻¹. The EC50 (read off the curve) in [3] is 1 µg/mL.

B2: chimeric HA9 (hHA9) anti-RAGE antibody (antibody, V domains shown)
VH: EVKLVETGGGLVQPGRPMKLSCVASGFTLSDHWMNWVRQSPEKGLEWVAQIRNRPYKFEKYYSDSVKGRFTISRDDSKNSVYLQMNNLRAEDMGIYYCSSYRYGLAYWGQGTLVTVST
VL: DNLLTQSPAILSVSPGERVSFSCRASQTIDTRIHWYQQRKNGSPRLLIRYISESLSGIPSRFSGSGSGTEFTLTINSVESEDIADYYCQQTESWPITFGSGTKLEIK
notes: Chimeric ('chimeric humanised format') version of HA9 made in HEK293 by Absolute Antibody
For B2, in assay [4], the affinity, expressed as Kd, was 203 nM and the off-rate constant (koff) came to 0.0032 s⁻¹.

B3: mHA9: murine version of anti-RAGE antibody clone HA9 (antibody, V domains shown)
VH: B2 VH
VL: B2 VL
With B3, the “RAGE isoform detected by western blot” value in the assay with RAGE [5] is listed as “able to detect expression levels of full-length transmembrane RAGE”. For the same molecule, the “affinity interaction by SPR (summary statement)” value in [6] is “weak affinity interaction”. Further, in assay [7], the “binding to immobilised RAGE synthetic peptide” value was “highest affinity for the peptide sequence antigen”. Moreover, the “RAGE expression detected in human healthy tissues” value with RAGE [8] was “absent or very low expression”.

B4: HA9: anti-RAGE monoclonal antibody clone, VH SEQ ID NO: 7, VL SEQ ID NO: 8, raised against RAGE aa 39-65 (antibody, V domains shown)
RAGE, sequence (Q15109 23-317 limits assumed): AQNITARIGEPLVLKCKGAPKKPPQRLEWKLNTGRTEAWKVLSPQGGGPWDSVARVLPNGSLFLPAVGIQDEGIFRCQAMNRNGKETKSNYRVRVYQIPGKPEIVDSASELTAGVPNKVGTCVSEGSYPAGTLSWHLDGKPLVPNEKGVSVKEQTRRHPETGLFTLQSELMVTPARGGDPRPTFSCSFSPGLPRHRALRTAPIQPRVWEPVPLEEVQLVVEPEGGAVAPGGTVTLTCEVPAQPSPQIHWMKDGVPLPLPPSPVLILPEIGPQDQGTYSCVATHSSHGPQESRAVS
VH: B2 VH
VL: B2 VL
Regarding B4, the “uptake (internalisation), secondary antibody detection” value in the assay on SKOV3 cells is given as “highest uptake levels”. Further, in assay [7], the “binding to immobilised RAGE synthetic peptide” value is on record as “best binding response to the antigen”.

As a reminder, the Kd is the free concentration of one partner at which half of the binding sites on the other are occupied at equilibrium, for simple one-to-one binding. By koff is commonly meant the first-order rate constant of dissociation. Broadly, the kon is a measure of how fast the partners come together. By EC50 (read off the curve) is commonly meant the concentration at which the effect is half-maximal.
